To fix the notation:
B1: target 1 C6U,A16U (mixed)
RNA 1: CACCCGUGCAAAAAUGCAGGGGUCUAAAACUGAGCGGAUAACCUCUCUAUGG
RNA 2: GGGAAUGGAUCCACAUCUACGAAUUCGUACCAUAGUGAGGUUAUCUGCUCACCGAGAUCGGAAGAGCACACGU
B2: target 1 del7,del16 (mixed)
RNA 1: CACCCGUGCAAAAAUGCAGGGGUCUAAAACUGAGCGGAUAACCUCUCUAUGG
RNA 2: GGGAAUGGAUCCACAUCUACGAAUUCGUACCAUAGGAGGUUAUCGCUCACCGAGAUCGGAAGAGCACACGU
B3: target 2 MT 5'PFS GAU 3'PFS ACA (mixed)
RNA 1: CACCCGUGCAAAAUUGCAGGGGUCUAAAACCUUCUCCAAAUUGUUUCAUCCU
RNA 2: GGGAAUGGAUCCACAUCUACGAAUUCGAUAGGAUGAAACAAUUUGGAGAAGACAAGAUCGGAAGAGCACACGU
B4: target 2 MT 5'PFS UAC 3'PFS AAC (mixed)
RNA 1: CACCCGUGCAAAAUUGCAGGGGUCUAAAACCUUCUCCAAAUUGUUUCAUCCU
RNA 2: GGGAAUGGAUCCACAUCUACGAAUUCUACAGGAUGAAACAAUUUGGAGAAGAACAGAUCGGAAGAGCACACGU
B5: target 2 MT 5'PFS ACA 3'PFS UAA (mixed)
RNA 1: CACCCGUGCAAAAUUGCAGGGGUCUAAAACCUUCUCCAAAUUGUUUCAUCCU
RNA 2: GGGAAUGGAUCCACAUCUACGAAUUCACAAGGAUGAAACAAUUUGGAGAAGUAAAGAUCGGAAGAGCACACGU
B6: target 2 MT 5'PFS GUU 3'PFS UUC (mixed)
RNA 1: CACCCGUGCAAAAUUGCAGGGGUCUAAAACCUUCUCCAAAUUGUUUCAUCCU
RNA 2: GGGAAUGGAUCCACAUCUACGAAUUCGUUAGGAUGAAACAAUUUGGAGAAGUUCAGAUCGGAAGAGCACACGU
B7: target 2 MT 5'PFS CUA 3'PFS CCU (mixed)
RNA 1: CACCCGUGCAAAAUUGCAGGGGUCUAAAACCUUCUCCAAAUUGUUUCAUCCU
RNA 2: GGGAAUGGAUCCACAUCUACGAAUUCCUAAGGAUGAAACAAUUUGGAGAAGCCUAGAUCGGAAGAGCACACGU
B8: target 2 MT 5'PFS UAC 3'PFS UGC (mixed)
RNA 1: CACCCGUGCAAAAUUGCAGGGGUCUAAAACCUUCUCCAAAUUGUUUCAUCCU
RNA 2: GGGAAUGGAUCCACAUCUACGAAUUCUACAGGAUGAAACAAUUUGGAGAAGUGCAGAUCGGAAGAGCACACGU
B9: target 2 MT 5'PFS GUG 3'PFS UCC (mixed)
RNA 1: CACCCGUGCAAAAUUGCAGGGGUCUAAAACCUUCUCCAAAUUGUUUCAUCCU
RNA 2: GGGAAUGGAUCCACAUCUACGAAUUCGUGAGGAUGAAACAAUUUGGAGAAGUCCAGAUCGGAAGAGCACACGU
B10: target 2 MT 5'PFS GUU 3'PFS UUU (mixed)
RNA 1: CACCCGUGCAAAAUUGCAGGGGUCUAAAACCUUCUCCAAAUUGUUUCAUCCU
RNA 2: GGGAAUGGAUCCACAUCUACGAAUUCGUUAGGAUGAAACAAUUUGGAGAAGUUUAGAUCGGAAGAGCACACGU
B11: target 2 MT 5'PFS GUG 3'PFS UCG (mixed)
RNA 1: CACCCGUGCAAAAUUGCAGGGGUCUAAAACCUUCUCCAAAUUGUUUCAUCCU
RNA 2: GGGAAUGGAUCCACAUCUACGAAUUCGUGAGGAUGAAACAAUUUGGAGAAGUCGAGAUCGGAAGAGCACACGU
B12: target 2 MT 5'PFS UAC 3'PFS AAA (mixed)
RNA 1: CACCCGUGCAAAAUUGCAGGGGUCUAAAACCUUCUCCAAAUUGUUUCAUCCU
RNA 2: GGGAAUGGAUCCACAUCUACGAAUUCUACAGGAUGAAACAAUUUGGAGAAGAAAAGAUCGGAAGAGCACACGU
B13: target 2 MT 5'PFS UAC 3'PFS AAG (mixed)
RNA 1: CACCCGUGCAAAAUUGCAGGGGUCUAAAACCUUCUCCAAAUUGUUUCAUCCU
RNA 2: GGGAAUGGAUCCACAUCUACGAAUUCUACAGGAUGAAACAAUUUGGAGAAGAAGAGAUCGGAAGAGCACACGU
B14: target 2 MT 5'PFS CAU 3'PFS CUG (mixed)
RNA 1: CACCCGUGCAAAAUUGCAGGGGUCUAAAACCUUCUCCAAAUUGUUUCAUCCU
RNA 2: GGGAAUGGAUCCACAUCUACGAAUUCCAUAGGAUGAAACAAUUUGGAGAAGCUGAGAUCGGAAGAGCACACGU
B15: target 2 MT 5'PFS CGC 3'PFS UUG (mixed)
RNA 1: CACCCGUGCAAAAUUGCAGGGGUCUAAAACCUUCUCCAAAUUGUUUCAUCCU
RNA 2: GGGAAUGGAUCCACAUCUACGAAUUCCGCAGGAUGAAACAAUUUGGAGAAGUUGAGAUCGGAAGAGCACACGU
B16: target 2 MT 5'PFS UAC 3'PFS AAU (mixed)
RNA 1: CACCCGUGCAAAAUUGCAGGGGUCUAAAACCUUCUCCAAAUUGUUUCAUCCU
RNA 2: GGGAAUGGAUCCACAUCUACGAAUUCUACAGGAUGAAACAAUUUGGAGAAGAAUAGAUCGGAAGAGCACACGU
B17: target 2 MT 5'PFS GAU 3'PFS ACC (mixed)
RNA 1: CACCCGUGCAAAAUUGCAGGGGUCUAAAACCUUCUCCAAAUUGUUUCAUCCU
RNA 2: GGGAAUGGAUCCACAUCUACGAAUUCGAUAGGAUGAAACAAUUUGGAGAAGACCAGAUCGGAAGAGCACACGU
B18: target 2 MT 5'PFS GUG 3'PFS UCU (mixed)
RNA 1: CACCCGUGCAAAAUUGCAGGGGUCUAAAACCUUCUCCAAAUUGUUUCAUCCU
RNA 2: GGGAAUGGAUCCACAUCUACGAAUUCGUGAGGAUGAAACAAUUUGGAGAAGUCUAGAUCGGAAGAGCACACGU
B19: target 2 MT 5'PFS GUG 3'PFS UCA (mixed)
RNA 1: CACCCGUGCAAAAUUGCAGGGGUCUAAAACCUUCUCCAAAUUGUUUCAUCCU
RNA 2: GGGAAUGGAUCCACAUCUACGAAUUCGUGAGGAUGAAACAAUUUGGAGAAGUCAAGAUCGGAAGAGCACACGU
B20: target 2 MT 5'PFS AUU 3'PFS UCU (mixed)
RNA 1: CACCCGUGCAAAAUUGCAGGGGUCUAAAACCUUCUCCAAAUUGUUUCAUCCU
RNA 2: GGGAAUGGAUCCACAUCUACGAAUUCAUUAGGAUGAAACAAUUUGGAGAAGUCUAGAUCGGAAGAGCACACGU
B21: target 2 MT 5'PFS CAU 3'PFS CUC (mixed)
RNA 1: CACCCGUGCAAAAUUGCAGGGGUCUAAAACCUUCUCCAAAUUGUUUCAUCCU
RNA 2: GGGAAUGGAUCCACAUCUACGAAUUCCAUAGGAUGAAACAAUUUGGAGAAGCUCAGAUCGGAAGAGCACACGU
B22: target 2 MT 5'PFS AAC 3'PFS AAA (mixed)
RNA 1: CACCCGUGCAAAAUUGCAGGGGUCUAAAACCUUCUCCAAAUUGUUUCAUCCU
RNA 2: GGGAAUGGAUCCACAUCUACGAAUUCAACAGGAUGAAACAAUUUGGAGAAGAAAAGAUCGGAAGAGCACACGU
B23: target 2 MT 5'PFS CCU 3'PFS UCC (mixed)
RNA 1: CACCCGUGCAAAAUUGCAGGGGUCUAAAACCUUCUCCAAAUUGUUUCAUCCU
RNA 2: GGGAAUGGAUCCACAUCUACGAAUUCCCUAGGAUGAAACAAUUUGGAGAAGUCCAGAUCGGAAGAGCACACGU
B24: target 2 MT 5'PFS UUC 3'PFS UAC (mixed)
RNA 1: CACCCGUGCAAAAUUGCAGGGGUCUAAAACCUUCUCCAAAUUGUUUCAUCCU
RNA 2: GGGAAUGGAUCCACAUCUACGAAUUCUUCAGGAUGAAACAAUUUGGAGAAGUACAGAUCGGAAGAGCACACGU
B25: target 2 MT 5'PFS GAU 3'PFS ACG (mixed)
RNA 1: CACCCGUGCAAAAUUGCAGGGGUCUAAAACCUUCUCCAAAUUGUUUCAUCCU
RNA 2: GGGAAUGGAUCCACAUCUACGAAUUCGAUAGGAUGAAACAAUUUGGAGAAGACGAGAUCGGAAGAGCACACGU
B26: target 2 MT 5'PFS ACA 3'PFS UAC (mixed)
RNA 1: CACCCGUGCAAAAUUGCAGGGGUCUAAAACCUUCUCCAAAUUGUUUCAUCCU
RNA 2: GGGAAUGGAUCCACAUCUACGAAUUCACAAGGAUGAAACAAUUUGGAGAAGUACAGAUCGGAAGAGCACACGU
B27: target 2 MT 5'PFS ACA 3'PFS UAU (mixed)
RNA 1: CACCCGUGCAAAAUUGCAGGGGUCUAAAACCUUCUCCAAAUUGUUUCAUCCU
RNA 2: GGGAAUGGAUCCACAUCUACGAAUUCACAAGGAUGAAACAAUUUGGAGAAGUAUAGAUCGGAAGAGCACACGU

In the data set the target is T1, EsCas13d, nuclease-dead (Eubacterium siraeum, UniProt B0MS50, R295A;H300A;R849A;H854A).
T1 sequence: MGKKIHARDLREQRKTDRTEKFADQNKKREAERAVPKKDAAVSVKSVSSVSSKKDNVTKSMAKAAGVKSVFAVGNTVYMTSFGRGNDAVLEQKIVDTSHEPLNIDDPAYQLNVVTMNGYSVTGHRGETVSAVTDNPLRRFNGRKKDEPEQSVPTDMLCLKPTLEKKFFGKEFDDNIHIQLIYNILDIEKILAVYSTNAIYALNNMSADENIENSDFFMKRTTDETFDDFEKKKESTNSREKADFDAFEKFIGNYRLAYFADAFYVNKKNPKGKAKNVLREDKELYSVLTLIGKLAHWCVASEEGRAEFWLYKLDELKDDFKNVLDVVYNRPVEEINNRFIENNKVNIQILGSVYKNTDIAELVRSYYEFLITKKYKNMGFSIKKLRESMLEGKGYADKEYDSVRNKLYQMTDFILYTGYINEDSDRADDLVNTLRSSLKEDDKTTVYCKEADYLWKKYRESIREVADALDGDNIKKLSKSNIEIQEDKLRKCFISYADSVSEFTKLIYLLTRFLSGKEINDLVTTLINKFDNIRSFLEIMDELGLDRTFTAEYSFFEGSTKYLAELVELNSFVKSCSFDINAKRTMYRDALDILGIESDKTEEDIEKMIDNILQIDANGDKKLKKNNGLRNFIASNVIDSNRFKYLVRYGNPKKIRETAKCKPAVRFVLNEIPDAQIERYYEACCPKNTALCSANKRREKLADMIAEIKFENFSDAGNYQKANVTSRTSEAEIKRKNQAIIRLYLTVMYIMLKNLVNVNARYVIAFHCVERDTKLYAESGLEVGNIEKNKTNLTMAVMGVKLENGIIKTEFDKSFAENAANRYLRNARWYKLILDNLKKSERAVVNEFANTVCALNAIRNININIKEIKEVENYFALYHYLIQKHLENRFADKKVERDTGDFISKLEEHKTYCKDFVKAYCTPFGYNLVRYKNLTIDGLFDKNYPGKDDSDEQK
Put plainly: crRNA (strand 1, pre-loaded); Mg2+; 40 mM Tris-HCl pH 7.5, 150 mM NaCl, 6 mM MgCl2, 1 mM DTT, 0.1% Tween-20, 0.2 mg/ml BSA; 25 C; 10 min per concentration, then washed. The note with it: tags: His6-TwinStrep-SUMO cleaved; N-terminal SNAP kept (SNAP-Surface 488); label: 3' end held by stalled T7 RNA polymerase.
A word on the Kd: it is the constant that tells how readily two partners part at equilibrium. Higher therefore signals a looser complex. The molecule B1 showed a Kd of 37.1 ± 2.6 nM.

Take B2: the affinity, expressed as Kd, was 45 ± 6 nM.

B3 yielded a Kd of 10.6 ± 1.6 nM.

As to B4, the Kd was found to be 11 ± 4 nM.

For the molecule B5, binding was put at a Kd of 4.3 ± 1.4 nM.

B6: the dissociation constant (Kd) turned out to be 31 ± 5 nM.

Regarding B7, the Kd was approximately 49 nM.

Regarding B8, the equilibrium dissociation constant (Kd) amounted to 6 ± 0.8 nM.

B9 showed a dissociation constant Kd of 42 ± 6 nM.

For B10, the Kd turned out to be 51 ± 11 nM.

The molecule B11 returned a Kd of 18.2 ± 2.2 nM.

Molecule B12 came in with a Kd of 6 ± 1.4 nM.

As to B13, the Kd stood at 5.8 ± 1 nM.

As for B14, binding was characterised by a dissociation constant (Kd) of 5.4 ± 0.8 nM.

Molecule B15 had a Kd of 8.1 ± 1.4 nM.

As for B16, the Kd is 10 ± 4 nM.

B17 returned a Kd of 17.7 ± 3.4 nM.

In turn, B18 registered a dissociation constant Kd of 18.9 ± 1.8 nM.

For B19, the equilibrium dissociation constant (Kd) stood at 17.3 ± 2.7 nM.

In turn, B20 came in with a Kd of 10.7 ± 0.6 nM.

B21 showed a dissociation constant Kd of 6.8 ± 0.8 nM.

Take B22: the equilibrium dissociation constant (Kd) amounted to 10 ± 5 nM.

Turning to B23, binding was put at a Kd of 1.74 ± 0.18 nM.

As for B24, the affinity, expressed as Kd, was 17 ± 6 nM.

Take B25: the Kd is 17.2 ± 2.2 nM.

B26 displayed a dissociation constant Kd of approximately 18 nM.

Consider B27, for which the Kd amounted to 5.1 ± 1.1 nM.

For the origin of these results see publication PMC10786891, “Massively parallel profiling of RNA-targeting CRISPR-Cas13d”.
